Residue numbers refer to the chain shown, from its start.
Tests used:
Assay in all cases: BLI
TtRecR G169C = biological target: T1, TtRecR G169C (Thermus thermophilus, UniProt Q5SHY0 1-194, G169C)
T1 sequence: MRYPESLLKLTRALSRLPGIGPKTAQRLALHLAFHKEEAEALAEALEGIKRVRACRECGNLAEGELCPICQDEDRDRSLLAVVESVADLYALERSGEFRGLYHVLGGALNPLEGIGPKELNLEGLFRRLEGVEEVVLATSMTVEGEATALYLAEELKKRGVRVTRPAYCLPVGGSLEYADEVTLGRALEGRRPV

TtRecF D57C;TtRecR = biological target: T2, TtRecF D57C;TtRecR (Thermus thermophilus;Thermus …, UniProt Q5SLM9;Q5SHY0 1-343;1-194, D57C|)
T2 sequence 1: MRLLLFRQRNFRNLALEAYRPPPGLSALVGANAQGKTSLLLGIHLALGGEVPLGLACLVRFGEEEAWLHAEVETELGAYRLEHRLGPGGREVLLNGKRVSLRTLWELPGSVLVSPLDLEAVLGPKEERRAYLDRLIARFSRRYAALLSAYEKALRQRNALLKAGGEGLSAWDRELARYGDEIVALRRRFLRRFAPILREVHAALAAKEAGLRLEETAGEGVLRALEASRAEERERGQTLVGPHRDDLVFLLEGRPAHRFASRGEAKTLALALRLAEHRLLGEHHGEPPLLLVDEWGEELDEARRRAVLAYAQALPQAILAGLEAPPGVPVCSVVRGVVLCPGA
T2 sequence 2: T1 sequence with C169G

TtRecF S261C;TtRecR = biological target: T3, TtRecF S261C;TtRecR (Thermus thermophilus;Thermus …, UniProt Q5SLM9;Q5SHY0 1-343;1-194, S261C|)
T3 sequence 1: T2 sequence 1 with C57D, S261C
T3 sequence 2: T1 sequence with C169G

TtRecF S261C = biological target: T4, TtRecF S261C (Thermus thermophilus, UniProt Q5SLM9 1-343, S261C)
T4 sequence: T2 sequence 1 with C57D, S261C

TtRecF D57C = biological target: T5, TtRecF D57C (Thermus thermophilus, UniProt Q5SLM9 1-343, D57C)
T5 sequence: T2 sequence 1

TtRecR = biological target: T6, TtRecR (Thermus thermophilus, UniProt Q5SHY0 1-194)
T6 sequence: T1 sequence with C169G

TtSSB = biological target: T7, TtSSB (Thermus thermophilus, UniProt Q5SLP9 1-263)
T7 sequence: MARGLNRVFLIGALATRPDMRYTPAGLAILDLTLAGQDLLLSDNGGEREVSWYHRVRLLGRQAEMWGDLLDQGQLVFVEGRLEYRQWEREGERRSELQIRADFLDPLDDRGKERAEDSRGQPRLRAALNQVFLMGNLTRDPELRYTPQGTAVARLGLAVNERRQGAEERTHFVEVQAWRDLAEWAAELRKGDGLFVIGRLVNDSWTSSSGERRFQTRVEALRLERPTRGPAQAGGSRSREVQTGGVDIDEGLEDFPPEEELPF

Binder: GCAATGAAGTACGCTTGCCAGCTGCAGTCATGATTG (ssDNA) [biotinylated 36-mer ssDNA]
- binding result (TtRecR G169C): binds
- binding result (TtRecF D57C;TtRecR): binds
- binding result (TtRecF S261C;TtRecR): binds
- Kd (TtRecF S261C): 19.7 µM
- Kd (TtRecF D57C): 146 µM
- binding result (TtRecR): no binding
- Kd (TtSSB): ~0.0072 µM

From paper doi:10.1101/2019.12.17.877662 (bioRxiv, 2019)
